According to the supplement of paper PMC11246515:
± gives the standard deviation of the averaged measurements.

Assay: total protein half-life in vivo (active degradation + dilution); higher = more stable protein
[1] = E. coli NCM3722 delta-clpP delta-lon delta-hslV, growth: N-lim chemostat, doubling time 6 h
[2] = E. coli NCM3722 delta-clpP, growth: N-lim chemostat, doubling time 6 h
[3] = E. coli NCM3722 delta-hslV, growth: N-lim chemostat, doubling time 6 h
[4] = E. coli NCM3722 delta-lon, growth: N-lim chemostat, doubling time 6 h
[5] = E. coli NCM3722 delta-smpB, growth: N-lim chemostat, doubling time 6 h
[6] = wild type E. coli NCM3722, growth: C-lim chemostat, doubling time 3 h
[7] = wild type E. coli NCM3722, growth: C-lim chemostat, doubling time 6 h
[8] = wild type E. coli NCM3722, growth: C-lim chemostat, doubling time 12 h
[9] = wild type E. coli NCM3722, growth: N-lim chemostat, doubling time 6 h
[10] = wild type E. coli NCM3722, growth: N-lim chemostat, doubling time 12 h
[11] = wild type E. coli NCM3722, growth: P-lim chemostat, doubling time 6 h
[12] = wild type E. coli NCM3722, growth: P-lim chemostat, doubling time 12 h

Sequence | total protein half-life in vivo [1] [h] | total protein half-life in vivo [2] [h] | total protein half-life in vivo [3] [h] | total protein half-life in vivo [4] [h] | total protein half-life in vivo [5] [h] | total protein half-life in vivo [6] [h] | total protein half-life in vivo [7] [h] | total protein half-life in vivo [8] [h] | total protein half-life in vivo [9] [h] | total protein half-life in vivo [10] [h] | total protein half-life in vivo [11] [h] | total protein half-life in vivo [12] [h]
MSSKLVLVLNCGSSSLKFAIIDAVNGEEYLSGLAECFHLPEARIKWKMDGNKQEAALGAGAAHSEALNFIVNTILAQKPELSAQLTAIGHRIVHGGEKYTSSVVIDESVIQGIKDAASFAPLHNPAHLIGIEEALKSFPQLKDKNVAVFDTAFHQTMPEESYLYALPYNLYKEHGIRRYGAHGTSHFYVTQEAAKMLNKPVEELNIITCHLGNGGSVSAIRNGKCVDTSMGLTPLEGLVMGTRSGDIDPAIIFHLHDTLGMSVDAINKLLTKESGLLGLTEVTSDCRYVEDNYATKEDAKRAMDVYCHRLAKYIGAYTALMDGRLDAVVFTGGIGENAAMVRELSLGKLGVLGFEVDHERNLAARFGKSGFINKEGTRPAVVIPTNEELVIAQDASRLTA [P0A6A3] | 4.23 ± 0.13 | 6.03 ± 2.6 | 4.41 ± 0.054 | 4.89 ± 0.78 | 4.28 ± 0.21 | 3.25 ± 0.17 | 6.35 ± 0.1 | 12.1 ± 0.56 | 4.58 ± 0.21 | 8.13 ± 0.2 | 5.88 ± 0.24 | 13.1 ± 1.2
MSSLINNAMSGLNAAQAALNTASNNISSYNVAGYTRQTTIMAQANSTLGAGGWVGNGVYVSGVQREYDAFITNQLRAAQTQSSGLTARYEQMSKIDNMLSTSTSSLATQMQDFFTSLQTLVSNAEDPAARQALIGKSEGLVNQFKTTDQYLRDQDKQVNIAIGASVDQINNYAKQIASLNDQISRLTGVGAGASPNNLLDQRDQLVSELNQIVGVEVSVQDGGTYNITMANGYSLVQGSTARQLAAVPSSADPSRTTVAYVDGTAGNIEIPEKLLNTGSLGGILTFRSQDLDQTRNTLGQLALAFAEAFNTQHKAGFDANGDAGEDFFAIGKPAVLQNTKNKGDVAIGATVTDASAVLATDYKISFDNNQWQVTRLASNTTFTVTPDANGKVAFDGLELTFTGTPAVNDSFTLKPVSDAIVNMDVLITDEAKIAMASEEDAGDSDNRNGQALLDLQSNSKTVGGAKSFNDAYASLVSDIGNKTATLKTSSATQGNVVTQLSNQQQSISGVNLDEEYGNLQRFQQYYLANAQVLQTANAIFDALINIR | 3.99 ± 0.38 | > 8 | > 8 | – | > 8 | 0.385 ± 0.15 | 0.323 ± 0.065 | 0.835 ± 0.28 | 5.22 ± 0.16 | – | – | –
MSSSCIEEVSVPDDNWYRIANELLSRAGIAINGSAPADIRVKNPDFFKRVLQEGSLGLGESYMDGWWECDRLDMFFSKVLRAGLENQLPHHFKDTLRIAGARLFNLQSKKRAWIVGKEHYDLGNDLFSRMLDPFMQYSCAYWKDADNLESAQQAKLKMICEKLQLKPGMRVLDIGCGWGGLAHYMASNYDVSVVGVTISAEQQKMAQERCEGLDVTILLQDYRDLNDQFDRIVSVGMFEHVGPKNYDTYFAVVDRNLKPEGIFLLHTIGSKKTDLNVDPWINKYIFPNGCLPSVRQIAQSSEPHFVMEDWHNFGADYDTTLMAWYERFLAAWPEIADNYSERFKRMFTYYLNACAGAFRARDIQLWQVVFSRGVENGLRVAR [P0A9H7] | 2.09 ± 0.32 | 0.86 ± 0.041 | 0.465 ± 0.078 | 0.662 ± 0.29 | 0.503 ± 0.04 | 0.474 ± 0.077 | 0.6003 ± 0.0022 | 0.871 ± 0.26 | 0.643 ± 0.12 | 0.868 ± 0.22 | 0.649 ± 0.26 | 1.27 ± 0.76
MSSSRPVFRSRWLPYLLVAPQLIITVIFFIWPAGEALWYSLQSVDPFGFSSQFVGLDNFVTLFHDSYYLDSFWTTIKFSTFVTVSGLLVSLFFAALVEYIVRGSRFYQTLMLLPYAVAPAVAAVLWIFLFNPGRGLITHFLAEFGYDWNHAQNSGQAMFLVVFASVWKQISYNFLFFYAALQSIPRSLIEAAAIDGAGPIRRFFKIALPLIAPVSFFLLVVNLVYAFFDTFPVIDAATSGGPVQATTTLIYKIYREGFTGLDLASSAAQSVVLMFLVIVLTVVQFRYVESKVRYQ | – | – | – | – | – | – | – | – | – | – | 5.34 | 11.9 ± 0.84
MSSTLREASKDTLQAKDKTYHYYSLPLAAKSLGDITRLPKSLKVLLENLLRWQDGNSVTEEDIHALAGWLKNAHADREIAYRPARVLMQDFTGVPAVVDLAAMREAVKRLGGDTAKVNPLSPVDLVIDHSVTVDRFGDDEAFEENVRLEMERNHERYVFLKWGKQAFSRFSVVPPGTGICHQVNLEYLGKAVWSELQDGEWIAYPDTLVGTDSHTTMINGLGVLGWGVGGIEAEAAMLGQPVSMLIPDVVGFKLTGKLREGITATDLVLTVTQMLRKHGVVGKFVEFYGDGLDSLPLADRATIANMSPEYGATCGFFPIDAVTLDYMRLSGRSEDQVELVEKYAKAQGMWRNPGDEPIFTSTLELDMNDVEASLAGPKRPQDRVALPDVPKAFAASNELEVNATHKDRQPVDYVMNGHQYQLPDGAVVIAAITSCTNTSNPSVLMAAGLLAKKAVTLGLKRQPWVKASLAPGSKVVSDYLAKAKLTPYLDELGFNLVGYGCTTCIGNSGPLPDPIETAIKKSDLTVGAVLSGNRNFEGRIHPLVKTNWLASPPLVVAYALAGNMNINLASEPIGHDRKGDPVYLKDIWPSAQEIARAVEQVSTEMFRKEYAEVFEGTAEWKGINVTRSDTYGWQEDSTYIRLSPFFDEMQATPAPVEDIHGARILAMLGDSVTTDHISPAGSIKPDSPAGRYLQGRGVERKDFNSYGSRRGNHEVMMRGTFANIRIRNEMVPGVEGGMTRHLPDSDVVSIYDAAMRYKQEQTPLAVIAGKEYGSGSSRDWAAKGPRLLGIRVVIAESFERIHRSNLIGMGILPLEFPQGVTRKTLGLTGEEKIDIGDLQNLQPGATVPVTLTRADGSQEVVPCRCRIDTATELTYYQNDGILHYVIRNMLK | 5.26 ± 0.24 | 4.44 ± 0.1 | 4.73 ± 0.14 | 4.71 ± 0.15 | 4.362 ± 0.015 | 3.14 ± 0.26 | 5.47 ± 0.13 | 9.9 ± 0.64 | 4.65 ± 0.17 | 7.39 ± 0.19 | 5.81 ± 0.33 | 11 ± 0.17
MSSTNIEQVMPVKLAQALANPLFPALDSALRSGRHIGLDELDNHAFLMDFQEYLEEFYARYNVELIRAPEGFFYLRPRSTTLIPRSVLSELDMMVGKILCYLYLSPERLANEGIFTQQELYDELLTLADEAKLLKLVNNRSTGSDVDRQKLQEKVRSSLNRLRRLGMVWFMGHDSSKFRITESVFRFGADVRAGDDPREAQRRLIRDGEAMPIENHLQLNDETEENQPDSGEEE | 6.36 ± 0.27 | 6.18 ± 0.4 | – | 6.21 ± 0.7 | 5.67 ± 0.27 | 2.98 ± 0.069 | 5.85 ± 0.17 | 11.1 ± 0.5 | 5.85 ± 0.31 | 9.43 ± 0.28 | 5.716 ± 0.029 | 10.7 ± 0.54
